{"source": "patent US7005285", "proteins": {"B1": {"name": "human p21-activated kinase 5 (PAK5), full length, expressed in 293 cells from pcDNA3.1 myc-his (protein)", "chain": "MFGKKKKKIEISGPSNFEHRVHTGFDPQEQKFTGLPQQWHSLLADTANRPKPMVDPSCITPIQLAPMKTIVRGNKPCKETSINGLLEDFDNISVTRSNSLRKESPPTPDQGASSHGPGHAEENGFITFSQYSSESDTTADYTTEKYREKSLYGDDLDPYYRGSHAAKQNGHVMKMKHGEAYYSEVKPLKSDFARFSADYHSHLDSLSKPSEYSDLKWEYQRASSSSPLDYSFQFTPSRTAGTSGCSKESLAYSESEWGPSLDDYDRRPKSSYLNQTSPQPTMRQRSRSGSGLQEPMMPFGASAFKTHPQGHSYNSYTYPRLSEPTMCIPKVDYDRAQMVLSPPLSGSDTYPRGPAKLPQSQSKSGYSSSSHQYPSGYHKATLYHHPSLQSSSQYISTASYLSSLSLSSSTYPPPSWGSSSDQQPSRVSHEQFRAALQLVVSPGDPREYLANFIKIGEGSTGIVCIGTEKHTGKQVAVKKMDLRKQQRRELLFNEVVIMRDYHHDNVVDMYSSYLVGDELWVVMEFLEGGALTDIVTHTRMNEEQIATVCLSVLRALSYLHNQGVIHRDIKSDSILLTSDGRIKLSDFGFCAQVSKEVPKRKSLVGTPYWMAPELISRLPYGTEVDIWSLGIMVIEMIDGEPPYFNEPPLQAMRRIRDSLPPRVKDLHKVSSVLRGFLDLMLVREPSQRATAQELLGHPFLKLAGPPSCIVPLMRQYRHH"}}, "key": {"[1]": {"target": "myelin basic protein"}, "[2]": {"target": "histone H1"}}}
{"protein": "B1", "values": [{"measurement": "kinase assay: incorporation of 32P from [gamma-32P]ATP into substrate, SDS gel and phosphoimager", "setting": "[1]", "result": "PAK5 is able to phosphorylate generic kinase substrates such as myelin basic protein and histone H1"}, {"measurement": "kinase assay: incorporation of 32P from [gamma-32P]ATP into substrate, SDS gel and phosphoimager", "setting": "[2]", "result": "PAK5 is able to phosphorylate generic kinase substrates such as myelin basic protein and histone H1"}]}
